From PMC4122344, “Heterodimerization of p45–p75 Modulates p75 Signaling: Structural Basis and Mechanism of Action” (PLoS Biology, 2014)
Residue numbers refer to the chain shown, from its start. Names may count otherwise. One block for each binder: values may come before it.

Assays:
Flag-tagged human NgR = biological target: T1, Flag-tagged human NgR (human, UniProt Q9BZR6 27-447); assay: co-IP; HEK293 co-transfected with wild-type or mutant p75 and Flag-tagged NgR; p75 co-immunoprecipitated with NgR; blots quantified, wild type = 100%; conditions: partners not purified
T1 construct: Nogo-66 receptor (NgR), human; Printed both as Flag-hNgR and as NgR-Flag; also called Flag-hNgR; NgR-Flag; source: HEK293, transfected, in lysate
T1 sequence (looked up): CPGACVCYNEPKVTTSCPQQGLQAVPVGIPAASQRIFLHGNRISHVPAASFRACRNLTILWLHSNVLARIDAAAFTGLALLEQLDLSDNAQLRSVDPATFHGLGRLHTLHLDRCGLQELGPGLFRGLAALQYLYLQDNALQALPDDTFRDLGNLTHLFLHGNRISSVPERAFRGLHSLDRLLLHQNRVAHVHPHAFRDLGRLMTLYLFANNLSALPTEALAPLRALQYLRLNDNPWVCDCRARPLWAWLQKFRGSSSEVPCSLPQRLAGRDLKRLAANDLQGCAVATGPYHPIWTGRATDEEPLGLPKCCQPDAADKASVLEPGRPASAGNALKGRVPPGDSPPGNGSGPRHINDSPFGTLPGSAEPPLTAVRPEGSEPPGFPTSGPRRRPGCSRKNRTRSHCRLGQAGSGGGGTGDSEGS

[1] = biological target: T2, p75ICD (residues 290–418) (human, UniProt P08138 290-418); assay: SEC; S200-Superdex gel filtration, 4 °C, PBS pH 8.0, 0.7 ml/min; p75ICD purified with or without DTT (or with iodoacetamide in the lysis buffer); conditions: both partners purified
T2 chain: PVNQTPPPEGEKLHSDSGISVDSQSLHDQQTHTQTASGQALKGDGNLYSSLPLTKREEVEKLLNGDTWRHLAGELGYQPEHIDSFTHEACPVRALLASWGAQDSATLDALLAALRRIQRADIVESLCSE

[2] = biological target: T2, p75ICD (residues 290–418); assay: NMR titration; TROSY spectra of 15N-labelled p75ICD at different concentrations (10, 100, 500 µM) with DTT; 25 °C, PBS pH 8.0, 100 mM NaCl; monomer to dimer; conditions: both partners purified

percent co-immunoprecipitated with NgR (WT, 100%) (Flag-tagged human NgR): 27.4%
B3: p75 E377R (full-length) (receptor, UniProt P07174 30-425, looked up)
chain: KETCSTGLYTHSGECCKACNLGEGVAQPCGANQTVCEPCLDNVTFSDVVSATEPCKPCTECLGLQSMSAPCVEADDAVCRCAYGYYQDEETGHCEACSVCEVGSGLVFSCQDKQNTVCEECPEGTYSDEANHVDPCLPCTVCEDTERQLRECTPWADAECEEIPGRWIPRSTPPEGSDSTAPSTQEPEVPPEQDLVPSTVADMVTTVMGSSQPVVTRGTTDNLIPVYCSILAAVVVGLVAYIAFKRWNSCKQNKQGANSRPVNQTPPPEGEKLHSDSGISVDSQSLHDQQTHTQTASGQALKGDGNLYSSLPLTKREEVEKLLNGDTWRHLAGELGYQPEHIDSFTHRACPVRALLASWGAQDSATLDALLAALRRIQRADIVESLCSESTATSPV
notes: p75 neurotrophin receptor; source: HEK293, transfected, in lysate

percent co-immunoprecipitated with NgR (WT, 100%) (Flag-tagged human NgR): 17.7%
B4: p75-C257A (full-length) (receptor, UniProt P07174 30-425, looked up)
chain: B3 chain with C228A, R348E
notes: p75 neurotrophin receptor; also called p75 TM domain mutant; source: HEK293, transfected, in lysate

Further lines, the binder ahead of its results:

B1: p75 D372R (full-length) (receptor, UniProt P07174 30-425, looked up)
chain: B3 chain with D343R, R348E
notes: as for B3
percent co-immunoprecipitated with NgR (WT, 100%) (Flag-tagged human NgR): 61.8%

B2: p75 H376E (full-length) (receptor, UniProt P07174 30-425, looked up)
chain: B3 chain with H347E, R348E
notes: as for B3
percent co-immunoprecipitated with NgR (WT, 100%) (Flag-tagged human NgR): 125%

B5: p75ICD (residues 290–418) (domain or fragment)
chain: T2 chain
modifications: Methods print 'human p75ICD', but all residue numbers (L360, E363, Q367, D372, H376, E377, C379, W388, R404) and the mapped structure 1NGR fit the rat precursor; human P08138 is offset by +2 in this …
stoichiometry N [1]: 2
Kd [2]: ~100 µM
